From the Human Domainome abundance scans (Beltran et al. 2025)
± gives the uncertainty stated by the source.

B1: Mineralocorticoid receptor, residues 600 to 675; numbered along this chain, P08235 (parent)
chain: SKICLVCGDEASGCHYGVVTCGSCKVFFKRAVEGQHNYLCAGRNDCIIDKIRRKNCPACRLQKCLQAGMNLGARKS
B2: Membrane-associated guanylate kinase, WW and PDZ domain-containing protein 1, residues 352 to 401; numbered along this chain, Q96QZ7 (parent)
chain: TEELDSELELPAGWEKIEDPVYGIYYVDHINRKTQYENPVLEAKRKKQLE

Variants of: B1
Assay: abundance fitness (aPCA) (normalised: wild type 0, dead -1); higher = more abundant; growth selection in yeast, the domain comes from the species named
Details: Homo sapiens

Variant	abundance fitness
SKFCLVCGDEASGCHYGVVTCGSCKVFFKRAVEGQHNYLCAGRNDCIIDKIRRKNCPACRLQKCLQAGMNLGARKS	-0.04 ± 0.12
SKACLVCGDEASGCHYGVVTCGSCKVFFKRAVEGQHNYLCAGRNDCIIDKIRRKNCPACRLQKCLQAGMNLGARKS	-0.157 ± 0.044
SKKCLVCGDEASGCHYGVVTCGSCKVFFKRAVEGQHNYLCAGRNDCIIDKIRRKNCPACRLQKCLQAGMNLGARKS	-0.196 ± 0.057
SKRCLVCGDEASGCHYGVVTCGSCKVFFKRAVEGQHNYLCAGRNDCIIDKIRRKNCPACRLQKCLQAGMNLGARKS	-0.225 ± 0.035
SKWCLVCGDEASGCHYGVVTCGSCKVFFKRAVEGQHNYLCAGRNDCIIDKIRRKNCPACRLQKCLQAGMNLGARKS	-0.315 ± 0.053
SKLCLVCGDEASGCHYGVVTCGSCKVFFKRAVEGQHNYLCAGRNDCIIDKIRRKNCPACRLQKCLQAGMNLGARKS	-0.239 ± 0.043
SKYCLVCGDEASGCHYGVVTCGSCKVFFKRAVEGQHNYLCAGRNDCIIDKIRRKNCPACRLQKCLQAGMNLGARKS	-0.027 ± 0.071
SKSCLVCGDEASGCHYGVVTCGSCKVFFKRAVEGQHNYLCAGRNDCIIDKIRRKNCPACRLQKCLQAGMNLGARKS	-0.128 ± 0.04
SKNCLVCGDEASGCHYGVVTCGSCKVFFKRAVEGQHNYLCAGRNDCIIDKIRRKNCPACRLQKCLQAGMNLGARKS	-0.022 ± 0.072
SKGCLVCGDEASGCHYGVVTCGSCKVFFKRAVEGQHNYLCAGRNDCIIDKIRRKNCPACRLQKCLQAGMNLGARKS	-0.162 ± 0.04
SKPCLVCGDEASGCHYGVVTCGSCKVFFKRAVEGQHNYLCAGRNDCIIDKIRRKNCPACRLQKCLQAGMNLGARKS	-0.453 ± 0.06
SKTCLVCGDEASGCHYGVVTCGSCKVFFKRAVEGQHNYLCAGRNDCIIDKIRRKNCPACRLQKCLQAGMNLGARKS	-0.164 ± 0.056
SKVCLVCGDEASGCHYGVVTCGSCKVFFKRAVEGQHNYLCAGRNDCIIDKIRRKNCPACRLQKCLQAGMNLGARKS	-0.166 ± 0.041
SKHCLVCGDEASGCHYGVVTCGSCKVFFKRAVEGQHNYLCAGRNDCIIDKIRRKNCPACRLQKCLQAGMNLGARKS	-0.11 ± 0.066
SKECLVCGDEASGCHYGVVTCGSCKVFFKRAVEGQHNYLCAGRNDCIIDKIRRKNCPACRLQKCLQAGMNLGARKS	-0.146 ± 0.055
SKCCLVCGDEASGCHYGVVTCGSCKVFFKRAVEGQHNYLCAGRNDCIIDKIRRKNCPACRLQKCLQAGMNLGARKS	-0.172 ± 0.073
SKMCLVCGDEASGCHYGVVTCGSCKVFFKRAVEGQHNYLCAGRNDCIIDKIRRKNCPACRLQKCLQAGMNLGARKS	-0.192 ± 0.054
SKDCLVCGDEASGCHYGVVTCGSCKVFFKRAVEGQHNYLCAGRNDCIIDKIRRKNCPACRLQKCLQAGMNLGARKS	-0.062 ± 0.085
SKQCLVCGDEASGCHYGVVTCGSCKVFFKRAVEGQHNYLCAGRNDCIIDKIRRKNCPACRLQKCLQAGMNLGARKS	-0.152 ± 0.05
SVICLVCGDEASGCHYGVVTCGSCKVFFKRAVEGQHNYLCAGRNDCIIDKIRRKNCPACRLQKCLQAGMNLGARKS	-0.142 ± 0.043

Variant	abundance fitness
SQICLVCGDEASGCHYGVVTCGSCKVFFKRAVEGQHNYLCAGRNDCIIDKIRRKNCPACRLQKCLQAGMNLGARKS	0.118 ± 0.067
SIICLVCGDEASGCHYGVVTCGSCKVFFKRAVEGQHNYLCAGRNDCIIDKIRRKNCPACRLQKCLQAGMNLGARKS	-0.041 ± 0.065
SAICLVCGDEASGCHYGVVTCGSCKVFFKRAVEGQHNYLCAGRNDCIIDKIRRKNCPACRLQKCLQAGMNLGARKS	-0.066 ± 0.048
SEICLVCGDEASGCHYGVVTCGSCKVFFKRAVEGQHNYLCAGRNDCIIDKIRRKNCPACRLQKCLQAGMNLGARKS	-0.072 ± 0.057
SDICLVCGDEASGCHYGVVTCGSCKVFFKRAVEGQHNYLCAGRNDCIIDKIRRKNCPACRLQKCLQAGMNLGARKS	-0.062 ± 0.063
SFICLVCGDEASGCHYGVVTCGSCKVFFKRAVEGQHNYLCAGRNDCIIDKIRRKNCPACRLQKCLQAGMNLGARKS	-0.267 ± 0.18
SGICLVCGDEASGCHYGVVTCGSCKVFFKRAVEGQHNYLCAGRNDCIIDKIRRKNCPACRLQKCLQAGMNLGARKS	-0.163 ± 0.042
SLICLVCGDEASGCHYGVVTCGSCKVFFKRAVEGQHNYLCAGRNDCIIDKIRRKNCPACRLQKCLQAGMNLGARKS	-0.099 ± 0.049
SMICLVCGDEASGCHYGVVTCGSCKVFFKRAVEGQHNYLCAGRNDCIIDKIRRKNCPACRLQKCLQAGMNLGARKS	-0.075 ± 0.055
SSICLVCGDEASGCHYGVVTCGSCKVFFKRAVEGQHNYLCAGRNDCIIDKIRRKNCPACRLQKCLQAGMNLGARKS	-0.161 ± 0.051
SHICLVCGDEASGCHYGVVTCGSCKVFFKRAVEGQHNYLCAGRNDCIIDKIRRKNCPACRLQKCLQAGMNLGARKS	-0.109 ± 0.078
STICLVCGDEASGCHYGVVTCGSCKVFFKRAVEGQHNYLCAGRNDCIIDKIRRKNCPACRLQKCLQAGMNLGARKS	-0.049 ± 0.06
SRICLVCGDEASGCHYGVVTCGSCKVFFKRAVEGQHNYLCAGRNDCIIDKIRRKNCPACRLQKCLQAGMNLGARKS	-0.083 ± 0.041
SYICLVCGDEASGCHYGVVTCGSCKVFFKRAVEGQHNYLCAGRNDCIIDKIRRKNCPACRLQKCLQAGMNLGARKS	-0.085 ± 0.098
SWICLVCGDEASGCHYGVVTCGSCKVFFKRAVEGQHNYLCAGRNDCIIDKIRRKNCPACRLQKCLQAGMNLGARKS	-0.246 ± 0.063
SNICLVCGDEASGCHYGVVTCGSCKVFFKRAVEGQHNYLCAGRNDCIIDKIRRKNCPACRLQKCLQAGMNLGARKS	0.002 ± 0.061
SKIALVCGDEASGCHYGVVTCGSCKVFFKRAVEGQHNYLCAGRNDCIIDKIRRKNCPACRLQKCLQAGMNLGARKS	-1.37 ± 0.35
SKIKLVCGDEASGCHYGVVTCGSCKVFFKRAVEGQHNYLCAGRNDCIIDKIRRKNCPACRLQKCLQAGMNLGARKS	-0.87 ± 0.23
SKIELVCGDEASGCHYGVVTCGSCKVFFKRAVEGQHNYLCAGRNDCIIDKIRRKNCPACRLQKCLQAGMNLGARKS	-0.727 ± 0.11
SKIHLVCGDEASGCHYGVVTCGSCKVFFKRAVEGQHNYLCAGRNDCIIDKIRRKNCPACRLQKCLQAGMNLGARKS	-0.77 ± 0.21

Variant	abundance fitness
SKIFLVCGDEASGCHYGVVTCGSCKVFFKRAVEGQHNYLCAGRNDCIIDKIRRKNCPACRLQKCLQAGMNLGARKS	-0.753 ± 0.26
SKIDLVCGDEASGCHYGVVTCGSCKVFFKRAVEGQHNYLCAGRNDCIIDKIRRKNCPACRLQKCLQAGMNLGARKS	-0.549 ± 0.15
SKIILVCGDEASGCHYGVVTCGSCKVFFKRAVEGQHNYLCAGRNDCIIDKIRRKNCPACRLQKCLQAGMNLGARKS	-0.808 ± 0.2
SKIGLVCGDEASGCHYGVVTCGSCKVFFKRAVEGQHNYLCAGRNDCIIDKIRRKNCPACRLQKCLQAGMNLGARKS	-0.842 ± 0.1
VKICLVCGDEASGCHYGVVTCGSCKVFFKRAVEGQHNYLCAGRNDCIIDKIRRKNCPACRLQKCLQAGMNLGARKS	0.018 ± 0.056
LKICLVCGDEASGCHYGVVTCGSCKVFFKRAVEGQHNYLCAGRNDCIIDKIRRKNCPACRLQKCLQAGMNLGARKS	-0.099 ± 0.062
AKICLVCGDEASGCHYGVVTCGSCKVFFKRAVEGQHNYLCAGRNDCIIDKIRRKNCPACRLQKCLQAGMNLGARKS	-0.136 ± 0.063
MKICLVCGDEASGCHYGVVTCGSCKVFFKRAVEGQHNYLCAGRNDCIIDKIRRKNCPACRLQKCLQAGMNLGARKS	-0.06 ± 0.074
RKICLVCGDEASGCHYGVVTCGSCKVFFKRAVEGQHNYLCAGRNDCIIDKIRRKNCPACRLQKCLQAGMNLGARKS	-0.099 ± 0.052
FKICLVCGDEASGCHYGVVTCGSCKVFFKRAVEGQHNYLCAGRNDCIIDKIRRKNCPACRLQKCLQAGMNLGARKS	-0.048 ± 0.1
PKICLVCGDEASGCHYGVVTCGSCKVFFKRAVEGQHNYLCAGRNDCIIDKIRRKNCPACRLQKCLQAGMNLGARKS	-0.13 ± 0.09
KKICLVCGDEASGCHYGVVTCGSCKVFFKRAVEGQHNYLCAGRNDCIIDKIRRKNCPACRLQKCLQAGMNLGARKS	-0.123 ± 0.1
IKICLVCGDEASGCHYGVVTCGSCKVFFKRAVEGQHNYLCAGRNDCIIDKIRRKNCPACRLQKCLQAGMNLGARKS	-0.035 ± 0.11
HKICLVCGDEASGCHYGVVTCGSCKVFFKRAVEGQHNYLCAGRNDCIIDKIRRKNCPACRLQKCLQAGMNLGARKS	0.002 ± 0.26
GKICLVCGDEASGCHYGVVTCGSCKVFFKRAVEGQHNYLCAGRNDCIIDKIRRKNCPACRLQKCLQAGMNLGARKS	-0.087 ± 0.06
DKICLVCGDEASGCHYGVVTCGSCKVFFKRAVEGQHNYLCAGRNDCIIDKIRRKNCPACRLQKCLQAGMNLGARKS	-0.406 ± 0.32
WKICLVCGDEASGCHYGVVTCGSCKVFFKRAVEGQHNYLCAGRNDCIIDKIRRKNCPACRLQKCLQAGMNLGARKS	-0.144 ± 0.073
YKICLVCGDEASGCHYGVVTCGSCKVFFKRAVEGQHNYLCAGRNDCIIDKIRRKNCPACRLQKCLQAGMNLGARKS	0 ± 0.089

Variants of: B2
Assay: as above
Details: Homo sapiens

Variant	abundance fitness
L49W	-0.239 ± 0.043
L49A	-0.003 ± 0.046
L49H	-0.073 ± 0.11
L49K	-0.002 ± 0.083
L49I	-0.232 ± 0.14
L49F	-0.328 ± 0.12
L49E	0.132 ± 0.066
L49M	0.154 ± 0.065
L49P	-0.049 ± 0.064
L49V	-0.138 ± 0.063
L49N	-0.222 ± 0.24
L49T	-0.002 ± 0.05
L49Y	-0.048 ± 0.089
E50D	0.006 ± 0.1
E50K	-0.264 ± 0.22
E50I	-0.273 ± 0.33
E50S	-0.321 ± 0.11
E50T	-0.174 ± 0.046
E50A	0.032 ± 0.064
E50L	-0.223 ± 0.18
E50W	0.058 ± 0.38
E50H	-0.699 ± 0.28

Variant	abundance fitness
E50Q	-0.438 ± 0.18
E50R	-0.841 ± 0.23
E50V	-0.332 ± 0.11
E50C	0.327 ± 0.43
K46V	-0.065 ± 0.041
K46Y	-0.169 ± 0.094
K46W	-0.331 ± 0.056
Q48P	-0.528 ± 0.077
Q48I	0.188 ± 0.092
Q48A	-0.045 ± 0.044
Q48L	-0.279 ± 0.055
Q48E	0.262 ± 0.077
Q48N	0.107 ± 0.047
Q48K	-0.035 ± 0.055
Q48V	-0.115 ± 0.048
Q48Y	-0.152 ± 0.052
Q48S	-0.035 ± 0.049
Q48H	-0.1 ± 0.089
Q48W	-0.26 ± 0.075
Q48T	-0.17 ± 0.051
Q48F	-0.339 ± 0.13
Q48R	-0.227 ± 0.052

Variant	abundance fitness
Q48C	-0.134 ± 0.061
Q48D	0.017 ± 0.073
Q48G	-0.221 ± 0.047
Q48M	0.001 ± 0.042
K47W	-0.414 ± 0.072
K47C	-0.232 ± 0.085
K47G	-0.169 ± 0.057
K47D	-0.154 ± 0.088
K47H	-0.172 ± 0.059
K47A	-0.075 ± 0.076
K47Y	-0.207 ± 0.06
K47P	-0.121 ± 0.08
K47T	-0.077 ± 0.044
K47S	0.016 ± 0.059
K47Q	0.013 ± 0.059
K47E	-0.25 ± 0.094
K47F	-0.239 ± 0.14
K47R	-0.163 ± 0.043
K47N	-0.318 ± 0.12
K47M	-0.102 ± 0.049
K47L	-0.008 ± 0.053
